Where two headings read alike, the source gives them in different places.
T1: recombinant water-soluble HLA-DR4 (DRA/DRB1*0401) (human)
T1 chain 1: not shown
T1 chain 2: not shown

T2: recombinant water-soluble HLA-DR1 (DRA/DRB1*0101) (human)
T2 chain 1: not shown
T2 chain 2: not shown

T3: HLA-DR4 on antigen presenting cells (L cells transfected with DR4; Priess cells DRB1*0401/DRB4*0101) (human)
T3 chain 1: not shown
T3 chain 2: not shown


What was measured:
[1] = target: recombinant water-soluble HLA-DR4 (DRA/DRB1*0401) (human)
[2] = target: recombinant water-soluble HLA-DR1 (DRA/DRB1*0101) (human)
[3] = target: recombinant water-soluble HLA-DR2 (DRB1*1501) (human)
[4] = target: recombinant water-soluble HLA-DR4 (DRA/DRB1*0401) (human); remark: listed apart in the source
[5] = target: recombinant water-soluble HLA-DR1 (DRA/DRB1*0101) (human); remark: listed apart in the source
[6] = target: T1, recombinant water-soluble HLA-DR4 …
[7] = target: T2, recombinant water-soluble HLA-DR1 …
[8] = target: T1, recombinant water-soluble HLA-DR4 …
[9] = target: T3, HLA-DR4 on antigen presenting cells (L …); assay: cell-based or functional assay
[10] = target: T2, recombinant water-soluble HLA-DR1 …

Row | Molecule | affinity determined by competition with biotinylated competitor [6] | inhibition of the DR4-restricted 3838 T cell clone (IL-2 secretion) [9] | further results
1 | Copolymer 1, poly(Y,E,A,K) |  |  | affinity determined by competition with biotinylated competitor [1]: 2.5 µM; percent of added YEAK in the bound fraction [2]: > 95%; percent of added YEAK in the bound fraction [3]: 80%; percent of added YEAK in the bound fraction [4]: > 95%; affinity determined by competition with biotinylated competitor [5]: 8 µM
2 | AAAYAAAAAAKAAAA (modifications not checked) [peptide SEQ ID NO: 5] | 7 µM |  | 
3 | AAKYEAAAAAKAAAA (modifications not checked) [peptide SEQ ID NO: 14] | 4 µM |  | 
4 | EAKYAAAAAAKAAAA (modifications not checked) [peptide SEQ ID NO: 18] | 4.4 µM |  | affinity determined by competition with biotinylated competitor [7]: 33 µM; affinity determined by competition with biotinylated competitor [8]: 3 µM
5 | AEKYAAAAAAKAAAA (modifications not checked) [peptide SEQ ID NO: 6] |  | > 80% | 
6 | EKAYAAAAAAKAAAA (modifications not checked) [peptide SEQ ID NO: 13] | 3.3 µM |  | 
7 | EAAYAAAAAAKAAAA (modifications not checked) [peptide SEQ ID NO: 16] | 5 µM | > 80% | 
8 | KEAYAAAAAAKAAAA (modifications not checked) [peptide SEQ ID NO: 10] | 4.5 µM |  | 
9 | AAKYAEAAAAKAAAA (modifications not checked) [peptide SEQ ID NO: 15] | 1.8 µM |  | affinity determined by competition with biotinylated competitor [7]: 42 µM; affinity determined by competition with biotinylated competitor [10]: 16 µM; affinity determined by competition with biotinylated competitor [8]: < 1 µM
10 | AEEYAAAAAAKAAAA (modifications not checked) [peptide SEQ ID NO: 11] |  | > 80% | 
11 | AAEYAAAAAAKAAAA (modifications not checked) [peptide SEQ ID NO: 12] | 3.2 µM |  | affinity determined by competition with biotinylated competitor [7]: 47 µM
12 | AKEYAAAAAAKAAAA (modifications not checked) [peptide SEQ ID NO: 7] | 4.5 µM |  | affinity determined by competition with biotinylated competitor [7]: 19 µM
13 | EKKYAAAAAAKAAAA (modifications not checked) [peptide SEQ ID NO: 17] | 1.8 µM | > 80% | 

The next lines start with results.

Row | affinity determined by competition with biotinylated competitor [6] | inhibition of the DR4-restricted 3838 T cell clone (IL-2 secretion) [9] | Molecule | further results
14 | 1.3 µM |  | AYKAEAAAAAAAAAA (modifications not checked) [peptide SEQ ID NO: 35] | 
15 | 3 µM |  | AEYAKAAAAAAAAAA (modifications not checked) [peptide SEQ ID NO: 32] | 
16 | 1.8 µM |  | AAEYKAAAAAAAAAA (modifications not checked) [peptide SEQ ID NO: 26] | 
17 |  | > 80% | AEKAYAAAAAAAAAA (modifications not checked) [peptide SEQ ID NO: 33] | affinity determined by competition with biotinylated competitor ([6]; remark: other sources report otherwise): < 1 µM
18 | 2.2 µM |  | AKKYEAAAAAAAAAA (modifications not checked) [peptide SEQ ID NO: 21] | 
19 |  | > 80% | AAKYEAAAAAAAAAA (modifications not checked) [peptide SEQ ID NO: 28] | 
20 | 3 µM |  | AKYAEAAAAAAAAAA (modifications not checked) [peptide SEQ ID NO: 36] | 
